Assay results published in the RNAGym collection of RNA variant scans (doi:10.7554/elife.80360).

B1: HDV Ribozyme (parent)
chain: GGCCGGCAUGGUCCCAGCCUCCUCGCUGGCGCCGGCUGGGCAACAUUCCGAGGGGACCGUCCCCUCGGUAAUGGCGAAUGGGACCCA

Variants of: B1
Test: self-cleavage, relative activity (ratio to wild type); higher = more cleavage; co-transcriptional

| Variant | self-cleavage |
| --- | --- |
| GGCCGGCAUAGUCCCAGCCUCCUCGCUGGCGCCGGCUGGGCAACAUUCCGAGGGGACCGUCCCCUCGGUAAUGGCGAUUGGGACCCA | 0.0382 |
| GACCGGCAUGGUCCCAGCCUCCUCGCUGGCGCCGGCUGGGCAACAUUCCGAGGGGACCGUCCCCUCGGUAAUGGCGAAUGAGACCCA | 0.0692 |
| GGCCGGCAUGGUCCCAGCCUCCUCGCUGGCGCCGGCUGGGCAACAUUCCGAGGGGACCGUCCCCUCGGUAAUGGCAAAUGGCACCCA | 0.214 |
| GGCCGGCAUGGUCCCAGCCUCCUCGCUGGCGCCGGCUGGCCAACAUUCCGAGGGGACCGUCCCCUCGGUAAAGGCGAAUGGGACCCA | 0.124 |
| GGCCGGCAUGGUCCCAGCCUACUCGCUGGCGCCGGCUGGGCCACAUUCCGAGGGGACCGUCCCCUCGGUAAUGGCGAAUGGGACCCA | 0.0437 |
| GGCCGGCAUGGUCUCAGCGUCCUCGCUGGCGCCGGCUGGGCAACAUUCCGAGGGGACCGUCCCCUCGGUAAUGGCGAAUGGGACCCA | 0.0396 |
| GGCCGGCAUGGUCCCAACCUCCUCGCUGGCGCCGGCUGGGCAACAUUCCGUGGGGACCGUCCCCUCGGUAAUGGCGAAUGGGACCCA | 0.884 |
| GGCCGGCAUGGUCCCAGCCUCCUCGCUGGCGCCGGCAGGCCAACAUUCCGAGGGGACCGUCCCCUCGGUAAUGGCGAAUGGGACCCA | 0.0519 |
| GGCCGGCAUGGUCCCAGCCUCCUCGCUGGCGCCGGCUGGGCAACAUUCUGAGGGGACCGUCCCCUCGGUAUUGGCGAAUGGGACCCA | 0.875 |
| GGCCGGCAUGGUCCCAGGCUCCUCGCUGGCGCCGGCUGGGCAACAUUCCGAGGGGACCGUCCCCUCGGUAAUGGCGAAUGGAACCCA | 0.0462 |
| GGCCGGCAUGGUCCCAGCCUCCUCGCUGGCGCCGACUGGGCAACAUUCCGAGGGGACCGUCCCCUCGGUAAUGGCGUAUGGGACCCA | 0.253 |
| GGCCGGCAUGGUCCCAGCCUACUCGCUGGCGCCGGCUGGGCAACAUUCCGAGGGAACCGUCCCCUCGGUAAUGGCGAAUGGGACCCA | 0.129 |
| GGCCGGCAUGGUCCCAGCCUCCUCGCUGGCGCCGGCUGGGCAACAAGCCGAGGGGACCGUCCCCUCGGUAAUGGCGAAUGGGACCCA | 0.369 |
| GGCCGGCAUGGUCCCAGCCUCCUCGCUGGCGCCGGCUCGGCAACAUUCCGAGGGGACCGUCCCCUCGCUAAUGGCGAAUGGGACCCA | 0.193 |
| GGCCGGCAUGGUCCCAGCCUCCUCGCUGGCGCCGGCUGGGCAACAUUCCGAGGGGACCGUCCGCUCGGUAAUGGCGUAUGGGACCCA | 0.277 |
| GGCCGGCAUGGUCCCAGCCUCCUCGCUGGCGCCGGCUGGGCAACAUUCCGAGGGGACCGACCCCUCGGUUAUGGCGAAUGGGACCCA | 1.06 |

| Variant | self-cleavage |
| --- | --- |
| GGCCGGCAUGGUCGCAGCCUCCUCGCUGGCGCCGGCUGGGCAACAUUCCGAGGGGACCGUCCCCUAGGUAAUGGCGAAUGGGACCCA | 0.665 |
| GGCCGGGAUGGUCCCAGCCUCCUCGCUGGCGCCGGCUGGGCAAGAUUCCGAGGGGACCGUCCCCUCGGUAAUGGCGAAUGGGACCCA | 0.0755 |
| GGCCGGCAUGGUCCCAGCUUCCUCGCUGGCGCCGGCUGGGCAACAUUCCGAGGGGACCGUCCCCUCGGUAGUGGCGAAUGGGACCCA | 0.104 |
| GGCCGGCAUGGUCCCAGCCUCCUCGCUGGCGCCGGCUGGGCAACAUUCCGAGGGGCCCGUCGCCUCGGUAAUGGCGAAUGGGACCCA | 0.458 |
| GGCCGGCAUGGUCCCAGCCGCCUCGCUGGCGCCGGCUGGGCAACAUUCCGAGGGGACCGUCCCCUUGGUAAUGGCGAAUGGGACCCA | 0.148 |
| GGCCGGCAUGGUCCCAGCAUCCUCGCUGGCGCCGGCUGGGCAACACUCCGAGGGGACCGUCCCCUCGGUAAUGGCGAAUGGGACCCA | 0.0665 |
| GGCCGGCAUGGUCCCAGCCUCCUCGCUGGCGCCGGCUGGGCAACAUUCCGAGGGGACCGUCCCCUCAGUAAUGGCGAAUGGGACACA | 0.844 |
| GGCCGGCAUGGUCCCAGCUUCCUCGCUGGCGCCGGCUGGGCAACAUUCAGAGGGGACCGUCCCCUCGGUAAUGGCGAAUGGGACCCA | 0.0378 |
| GGCCGGCAUGGUCCCAGCCUCCUCGCUGGCGCCGGCUGGGAAACACUCCGAGGGGACCGUCCCCUCGGUAAUGGCGAAUGGGACCCA | 0.415 |
| GGCCGGCAUGGUCCCAGCCUCAUCGCUCGCGCCGGCUGGGCAACAUUCCGAGGGGACCGUCCCCUCGGUAAUGGCGAAUGGGACCCA | 0 |
| GGCCGGCAUGGUCCCAGCCUCCUCGCUGGCGCCGGCUGGGCAACAUUCCGAGGGGACCGUCCCCUCGCCAAUGGCGAAUGGGACCCA | 0.697 |
| GGCCGGCAUUGCCCCAGCCUCCUCGCUGGCGCCGGCUGGGCAACAUUCCGAGGGGACCGUCCCCUCGGUAAUGGCGAAUGGGACCCA | 0.0755 |
| GGCCGGCAUGGUCCCAGCGUCCUCGCUAGCGCCGGCUGGGCAACAUUCCGAGGGGACCGUCCCCUCGGUAAUGGCGAAUGGGACCCA | 0.237 |
| GGCCGGCAUGUUCCCAGCCUCCUCGAUGGCGCCGGCUGGGCAACAUUCCGAGGGGACCGUCCCCUCGGUAAUGGCGAAUGGGACCCA | 0.689 |
| GGCCGCCAUGGUCCCAGCCUCCUCGCUGGGGCCGGCUGGGCAACAUUCCGAGGGGACCGUCCCCUCGGUAAUGGCGAAUGGGACCCA | 0.0615 |
| GGCCGGCAUGGUCCCAGCCUCCUCGCUGGCGCCGGCUGGGCAACAUUCUGAGGGGACCUUCCCCUCGGUAAUGGCGAAUGGGACCCA | 0.858 |
